Results reported in patent US20210163606A1 (ATYR PHARMA, published 2021).

Biological target: T1, human NRP2 variant 2 (hNRP2), untagged, on Expi293 cells (Human, UniProt O60462 23-931)
T1 construct: Transcript NM_003872 / NP_003863.2; also called Expi293-hNRP2 clonal cells; Human NRP2a (version 2)
T1 sequence: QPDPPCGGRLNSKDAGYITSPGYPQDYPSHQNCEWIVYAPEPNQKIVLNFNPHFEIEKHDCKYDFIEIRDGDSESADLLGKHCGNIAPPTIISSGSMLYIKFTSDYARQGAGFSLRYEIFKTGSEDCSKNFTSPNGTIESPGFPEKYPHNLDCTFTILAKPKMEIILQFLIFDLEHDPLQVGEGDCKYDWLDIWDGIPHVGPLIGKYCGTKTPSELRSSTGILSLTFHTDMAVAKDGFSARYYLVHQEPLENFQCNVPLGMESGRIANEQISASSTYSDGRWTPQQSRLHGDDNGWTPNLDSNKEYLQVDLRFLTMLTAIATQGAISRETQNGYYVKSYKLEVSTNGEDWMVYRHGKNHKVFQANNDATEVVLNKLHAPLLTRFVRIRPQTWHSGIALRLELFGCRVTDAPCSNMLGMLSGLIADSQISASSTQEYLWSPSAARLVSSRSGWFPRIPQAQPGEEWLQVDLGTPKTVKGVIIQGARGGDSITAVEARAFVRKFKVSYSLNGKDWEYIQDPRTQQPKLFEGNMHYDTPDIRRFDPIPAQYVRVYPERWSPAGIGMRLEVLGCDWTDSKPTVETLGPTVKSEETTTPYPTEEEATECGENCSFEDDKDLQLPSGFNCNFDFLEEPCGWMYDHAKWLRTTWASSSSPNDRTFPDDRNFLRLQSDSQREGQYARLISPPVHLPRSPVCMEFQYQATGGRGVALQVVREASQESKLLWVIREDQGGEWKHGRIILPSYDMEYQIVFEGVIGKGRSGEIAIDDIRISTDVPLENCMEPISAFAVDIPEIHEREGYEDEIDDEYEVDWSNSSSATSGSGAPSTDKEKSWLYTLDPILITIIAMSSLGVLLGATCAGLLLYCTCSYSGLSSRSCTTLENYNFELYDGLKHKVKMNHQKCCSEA
Assay: flow cytometry on Expi293-hNRP2 clonal cells
Method: Expi293-hNRP2 clonal cells were collected by centrifugation at 300 g for 5 minutes, and washed twice by DPBS (with calcium and magnesium, ThermoFisher Cat #14040133). Washed cells were added to a 96-well V-bottom plate (ThermoFisher Cat #1424572) at 100,000 cells/well in […] of DPBS added with Zombie Violet viability stain (Biolegend Cat #423114, diluted at 1:500). From this step on, cells were protected from light. Cells were kept at room temperature for 10 min and pelleted down at 300 g for 5 minutes at 4° C. Supernatants containing Zombie Violet were discarded, and without washing, 30 uL of antibodies diluted in the flow wash buffer (FWB, DPBS plus 2% FBS and 0.1% sodium azide to inhibit receptor internalization) were added to the cells. For anti-NRP2 antibody staining on Expi293-hNRP2 clonal cells, in-house human anti-NRP2 antibodies were tested at final concentrations of 0.006-100 nM at 4-fold dilutions. […] Binding was allowed to proceed on ice for 40-60 minutes. Cells were then pelleted at 300 g for 5 minutes at 4° C., supernatants removed, and cells washed twice by adding 150 μL of FWB and centrifuging the cells again in the same conditions. To detect a-NRP2 binding on the cell surface, Cy3-conjugated goat anti-human IgG Fc (Jackson ImmunoResearch Cat #109165098) was added to the cells at a final concentration of 3 μg/mL in 30 μL of FWB. After 30-40 minutes of incubation on ice, cells were pelleted at 300 g for 5 minutes at 4° C. and supernatants removed, and the cells were washed twice as described previously. Cells were then resuspended in FWB before acquisition on the Cytoflex. Gains were set based on staining controls. Cells were collected with typically more than 10,000 events. Cells were then analyzed on FlowJo analysis software by excluding dead cells and gating singlets. The statistical analysis was performed using GraphPad Prism. A four-parameter variable-slope curve was fitted to the data ([agonist] vs. response) using non-linear regression, and the EC₅₀ and r2 for each curve was determined.
The EC₅₀ of four anti-NRP2 antibodies directed against different domains of NRP2, were measured for binding to Expi293-hNRP2 clonal cells (see Table E1 and FIG. 3).

EC50: 0.09 nM
B1: aNRP2-10v10 (antibody, V domains shown)
VH: EVQLVQSGAEVKKPGATVKISCKVSGFNIKDYYVHWVQQAPGKGLEWMGRIDVEDDETKYAPKFQGRVTITADTSTDTAYMELSSLRSEDTAVYYCATPIYGAREAWFAYWGQGTLVTVSS
VL: DIQMTQSPSSLSASVGDRVTITCTASSSVSSSYLHWYQQKPGKAPKLLIYRTSNLASGVPSRFSGSGSGTDFTLTISSLQPEDFATYYCHQYYRSPPTFGGGTKVEIK
